# Measurements taken from article PMC6495647.
# Biological target: MucA’ protein (plasmid pKM101 (host species not stated))
# Assay: SPR; BIAcore 2000, kinetic analysis at lower ligand densities (577 RU of immobilized β, 1036 RU of immobilized MucA’ on CM5); MucB in the mobile phase; BSA reference cell; apparent constants; data not shown
binder,measurement,value
MucB protein (enzyme) MFALIDVNGMYASCEQAFRPDLANRAVAVLSNNDGNIVARNYLAKKAGLKMGDPYFKVRPIIERHNIAIFSSNYTLYASMSARFAAVVESLASHVEQYSIDELFVDCKGITAAMSLDAFGRQLREEVRRHTTLVCGVGIARTKTLAKLCNHAAKTWPATGGVVALDDGARLKKLMSILPVAEVWGVGHRTEKALATMGIKTVLDLARADTRLIRKTFGVVLERTVRELRGEACFSLEENPPAKQQIVVSRSFGQRVETLTDMQQAVTGFAARAAEKLRNERQYCRVISVFIRTSPYSVRDTQYANQATEKLTVATQDSRTIIQAAQALARIWREDIAYAKAGVMLADFSGKEAQLDLFDSATPSAGSEALMAVLDGINRRGKNQLFFAGQGIDNSFAMRRQMLSPDYTTDWRSIPIATIK,Kd,1.99 nM
same,amount bound (RU),355 RU
same,koff,0.000127 s⁻¹
same,kon,63900 M⁻¹ s⁻¹
